Literature values, collected in publication PMC8969216.

Target: SLAMF1 (Homo sapiens) (UniProt Q13291)

Kd: 200 µM
Substance: SLAMF1 (from UniProt Q13291)
